The results in this text go back to patent US20040210042A1 (published 2004).

In this assay the target is T1, polypeptide translated from the polynucleotide of SEQ ID NO: 62 (human, UniProt Q05513 356-592).
T1 construct: retested as a pGBKT7 fusion in yeast AH109
T1 sequence: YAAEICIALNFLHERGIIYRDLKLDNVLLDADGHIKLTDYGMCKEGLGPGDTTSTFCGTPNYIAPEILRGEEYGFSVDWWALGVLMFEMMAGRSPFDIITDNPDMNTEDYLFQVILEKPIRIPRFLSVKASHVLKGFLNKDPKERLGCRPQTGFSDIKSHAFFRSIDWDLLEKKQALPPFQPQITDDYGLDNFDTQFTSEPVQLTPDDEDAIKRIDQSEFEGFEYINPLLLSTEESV
As to the kind of experiment: yeast two-hybrid screen, LexA system, histidine and LacZ reporters, human kidney library. An excerpt:
Then, the Human kidney […] LexA library (manufactured by Clontech Co., Ltd.) was introduced to the above-described strain and 10⁶ colonies were screened. At the first screening, a histidine-deficient medium was used and about 200 colonies were selected based on the expression of a histidine gene, which was a reporter of the interaction. At the second screening, 31 colonies were obtained based on the expression of LacZ, which was another reporter of the interaction. Finally, 31 clones each of which had been confirmed to surely have two kinds of reporter activities were selected. The above procedures were carried out on the basis of protocols of the yeast two-hybrid method from Invitrogen Co., Ltd. and Clontech Co., Ltd.
The library vectors were recovered from the yeast colonies selected as described above, and the nucleotide sequences were analyzed using the DNA sequencer (the same as above). The nucleotide sequences are shown in SEQ ID NOS: 33 to 63 in the Sequence Listing.

Ends that are not written are not given here.

B1: cytoplasmic domain of RAGE (receptor for advanced glycation endproduct) (receptor, UniProt Q15109 364-404, looked up)
chain: QRRQRRGEERKAPENQEEEEERAELNQSEEPEAGESSTGGP
modifications: not fully specified
notes: domain: cytoplasmic domain; also called RAGECD; RAGECD fragments
As to B1, the binding result is listed as “binds”.
